The assay addresses Brucella abortus peptidoglycan hydrolase inhibitor A (PhiA), mature periplasmic form (Brucella abortus). Description: SEC-MALS.

A word on the stoichiometry N: it is the number of molecules, sites or subunits per partner or assembly. In turn, “Brucella abortus peptidoglycan hydrolase inhibitor A (PhiA), mature periplasmic form (natural protein)” returned a stoichiometry N of 4.

These data come from publication PMC8334348.
